# Source: patent US12077566B2, “Mutants of recombinant immunoregulatory protein of Ganoderma lucidum and applications thereof” (priority 2017, dated 2024)
# Where a chain is given by its changes, count along the chain named. Names and notes keep the numbering of the source. “Also recorded” adds a separate entry of the source.
# B1: FIP-fve: fungai immunomodulatory protein from flammulina velutipes (protein)
# chain: SATSLTFQLAYLVKKIDFDYTPNWGRGTPSSYIDNLTFPKVLTDKKYSYRVVVNGSDLGVESNFAVTPSGGQTINFLQYNKGYGVADTKTIQVFVVIPDTGNSEEYIIAEWKKT
# B2: rLZ-8 (K16A/K41A): alanine mutant of rLZ-8 at K16 and K41 (protein)
# chain: MSDTALIFRLAWDVKALSFDYTPNWGRGNPNNFIDTVTFPAVLTDKAYTYRVAVSGRNLGVKPSYAVESDGSQKVNFLEYNSGYGIADTNTIQVFVVDPDTNNDFIIAQWN
# B3: rLZ-8 (K46E): rLZ-8 mutant K46E (protein)
# chain: B2 chain with A16K, A41K, K46E
# B4: rLZ-8 (K41D/K46E/K74E): rLZ-8 mutant K41D, K46E and K74E (protein)
# chain: B2 chain with A16K, A41D, K46E, K74E
# B5: rLZ-8 (R9A): alanine mutant of rLZ-8 at R9 (protein)
# chain: B2 chain with R9A, A16K, A41K
# B6: rLZ-8 (L17K): rLZ-8 mutant after surface potential optimization, L17K (protein)
# chain: B2 chain with A16K, L17K, A41K
# B7: rLZ-8 (D20H/D70K): rLZ-8 mutant after surface potential optimization, D20H and D70K (protein)
# chain: B2 chain with A16K, D20H, A41K, D70K
# B8: rLZ-8 (K46E/K74E): rLZ-8 mutant K46E and K74E (protein)
# chain: B2 chain with A16K, A41K, K46E, K74E
# B9: rLZ-8 (M1A/R9A/D100A): rLZ-8 mutant named only in Tables 2, 3, 7 and 8 (protein)
# chain: B2 chain with M1A, R9A, A16K, A41K, D100A
# B10: rLZ-8 (D45A): alanine mutant of rLZ-8 at D45 (protein)
# chain: B2 chain with A16K, A41K, D45A
# B11: rLZ-8 (D20H): rLZ-8 mutant after surface potential optimization, D20H (protein)
# chain: B2 chain with A16K, D20H, A41K
# Key:
# [1] = biological target: EGFR extracellular domain (Homo sapiens, UniProt P00533); test: Affinity test by surface plasmon resonance (Biacore T200, CM5 chip); type: binding; details: for Affinity with the EGFR (in words): compared with rLZ-8; for Dissociation rate constant (koff) / Ka: EGFR extracellular domain coupled on CM5 chip, analyte 4-256 nM
# Method: The Biacore™ T200 equipment (a Surface Plasmon Resonance from GE Company) is selected. Through the surface plasma resonance technology, the affinity of the rLZ-8 and the mutants thereof to the EGFR extracellular domain is tested. The CM5 chip is adopted to serve as the affinity test chip.
# The EGFR extracellular domain (with an amino acid sequence of 25-645) serves as the ligand for coupling; 1 mg EGFR freeze-dried powders are diluted with HEPES buffer solution to a concentration of 400 μg/mL and set aside. Three 1.5 mL EP tubes are prepared; 10 μL ligand are respectively added into the three tubes, then 90 μL 10 mM sodium acetate with different pH values of 4.5, 5.0 and 5.5 are respectively added into the tubes and are mixed completely and uniformly; and a final concentration of the ligand is 40 μg/mL. Moreover, 200 μL 50 mM sodium acetate is added into another 1.5 mL EP tube.
# The ligand has a molecular weight of 70 kDa, the analyte (rLZ-8) has a molecular weight of 12.4 kDa. In theory, one rLZ-8 […] can bind with one EGFR, and thus the stoichiometric ratio Sm is equal to 1. Through the following equations, the coupling amount RL of the ligand is calculated.
# Through the experimental experience, the optimal reagent coupling amount is set to be 3*RL, and the coupling amount is set to be 1700 RU. The EGFR extracellular domain is successively coupled on the CM5 chip.
# In the affinity test, in order to eliminate the influence of different concentrations on the affinity, every of the rLZ-8 and the mutants thereof are tested with eight concentrations, wherein: seven concentrations are gradient concentrations, and the last one is the test reference concentration.
# [2] = system: liver cancer, lung cancer, breast cancer and colon cancer; test: Animal pharmacodynamic experiments of liver, lung, breast and colon cancer (summary statement); type: in vivo, mice; details: breast and colon cancer models together
# [3] = system: human liver cancer Hep G2 cells; details: for Tumor inhibitory effect (in words): after administration for 28 days; for Mice weight after experiment: mouse, in vivo; for Mice tumor weight after experiment / Survival rate of mice after experiment: qd×28 i.v., rLZ-8 and mutants 0.5 mg/kg, sorafenib 50 mg/kg; for Survival rate of mice after experiment: 10 mice per group
# Text: Two weeks later, the model mice are divided into groups randomly, and each group has 10 mice. The administration method is caudal vein injection, once a day, for consecutive 28 days (qd×28, i.v.). […] During the experiment, if the mouse dies, the dead mouse is weighted on the same day, and the tumor tissue is taken out to be weighted. For the living mouse after administration for 28 days, the mouse is killed, and then the tumor tissue is taken out to be weighted. The death time and death number of the mice in each group are recorded in detail; the survival conditions of the mice of the experimental groups and the control groups are analyzed, and the survival rate is calculated, wherein the survival rate is obtained through subtracting the death number of the mice from the total number of the mice, and then dividing the difference by the total number of the mice.
# [4] = system: human breast cancer MCF7 cells; test: Orthotopic transplantation tumor model of human breast cancer MCF7 cells; type: in vivo, BALB/c nude mice; details: after administration for 28 days
# Method: One day before the experiment, 0.5 mg of 17ß estradiol sustained release tablet is embedded below the neck skin of the BALB/c nude mice.
# [5] = system: human colon cancer SW480 cells; test: Transplantation tumor model of human colon cancer SW480 cells; type: in vivo, BALB/c nude mice; details: after administration for 28 days
# Method: The RPMI1640 medium containing 10% fetal bovine serum is selected for the human colon cancer SW480 cells, and then is placed in the CO2 constant-temperature incubator at 37° C. for culturing. The SW480 cells at the logarithmic phase are digested by pancreatin and thereafter washed with serum-free RPMI1640 medium; 2×10^6 cells are inoculated below the back skin of the BALB/c nude mice; after the tumor blocks for observation are formed and have the diameter larger than 0.5 cm, the mice are divided into groups randomly; and the transplantation tumor model of human colon cancer SW480 cells are constructed in the BALB/c nude mice.
# [6] = system: human lung cancer A549 cells; test: Orthotopic transplantation tumor model of human lung cancer A549 cells; details: after administration for 28 days;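 also: test animals were NOG mice aged 6-8 weeks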
# Method: The human lung cancer A549 cell strain is selected. The NOG Mice of 6-8 weeks old are selected.
# The DMEM containing 10% fetal bovine serum is selected for the human lung cancer A549 cells, and then is placed in the CO2 constant-temperature incubator at 37° C. for culturing. The A549 cells at the logarithmic phase are digested by pancreatin and thereafter washed with serum-free DMEM; the living cell concentration is adjusted to 1×10^8 cells per milliliter; 20 μL cell suspension is taken and inoculated at the lung of the NOG mice; two weeks later, the orthotopic transplantation tumor model of A549 lung cancer cells is constructed in the NOG mice.
Molecule,Affinity with the EGFR (in words) [1],Tumor inhibitory effect (in words) [2],Tumor inhibitory effect (in words) [3],Mice weight after experiment [3] [g],Mice tumor weight after experiment [3] [g],Survival rate of mice after experiment [3] [%],Dissociation rate constant (koff) [1] [s⁻¹],Ka [1] [M⁻¹ s⁻¹],Affinity with the EGFR (in words) ([1]; listed as rLZ-8 (K16A/K41 A)),Mice tumor weight after experiment [4] [g],Tumor inhibitory effect (in words) [4],Mice tumor weight after experiment [5] [g],Tumor inhibitory effect (in words) [5],Mice survival rate after experiment [6] [%],Mice tumor weight after experiment [6] [g],Mice weight after experiment [6] [g],Tumor inhibitory effect (in words) [6]
B1,does not have the capacity of binding with the EGFR,,,,,,,,,,,,,,,,
B2,obviously decreased by 2-3 orders of magnitudes,nearly no tumor inhibitory effect,nearly no tumor inhibitory effect,17.2 ± 1.3,1.46 ± 0.93,20,0.000273,220,obviously decreased affinity,1.12 ± 0.37,nearly no tumor inhibitory effect,3.12 ± 0.47,nearly no tumor inhibitory effect,20,1.26 ± 0.77,17.4 ± 1.5,nearly no tumor inhibitory effect
B3,,,,19.4 ± 1.8,0.75 ± 0.44,60,,,,0.75 ± 0.32,,2.15 ± 0.62,,40,0.65 ± 0.31,20.4 ± 1.6,
B4,decreased,,,20.0 ± 1.2,1.25 ± 0.53,40,,35300,,1.10 ± 0.42,,3.10 ± 0.48,,40,1.20 ± 0.62,19.1 ± 1.3,
B5,no obvious change,,,19.3 ± 1.3,0.65 ± 0.43,50,0.000528,61200,,0.79 ± 0.31,,1.89 ± 0.37,,50,0.69 ± 0.53,20.0 ± 1.4,
B6,,,,20.1 ± 1.4,0.58 ± 0.33,70,7.56e-05,10100,,0.63 ± 0.31,,1.62 ± 0.41,,70,0.53 ± 0.30,,
B7,,,,20.1 ± 1.5,0.51 ± 0.27,70,,,,0.60 ± 0.27,,1.60 ± 0.29,,70,0.49 ± 0.28,20.6 ± 1.7,
B8,,,,20.1 ± 1.7,0.69 ± 0.42,60,0.000614,65700,,0.73 ± 0.24,,2.23 ± 0.54,,50,0.63 ± 0.41,20.0 ± 1.5,
B9,,,,,0.78 ± 0.67,60,,,,0.77 ± 0.32,,1.97 ± 0.35,,,,,
B10,obviously decreased by 2-3 orders of magnitudes; also recorded: obviously decreased affinity,nearly no tumor inhibitory effect,nearly no tumor inhibitory effect,17.4 ± 1.6,1.44 ± 0.80,50,,1200,,1.08 ± 0.28,nearly no tumor inhibitory effect,3.26 ± 0.56,nearly no tumor inhibitory effect,30,1.28 ± 0.68,17.5 ± 1.5,nearly no tumor inhibitory effect
B11,,,,19.7 ± 1.7,0.60 ± 0.31,60,0.000432,58700,,0.61 ± 0.22,,1.54 ± 0.45,,70,0.51 ± 0.32,19.9 ± 1.7,
